Experimental data reported in the domain aggregation screens of Martell et al. (2025).

Assay: soluble fraction after stress (log2 fold change); higher = more stays soluble; pooled small domains, quantitative proteomics
Details: stress: 50 degC
Summary of the method: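 The measure of aggregation propensity here is the base-two logarithm of the fold change in the soluble amount of each protein after stress. A higher value means more of that protein stays in solution. Stress was applied at 50°C to pooled libraries of small protein domains, read out by high-throughput quantitative proteomics.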

Sequence | soluble fraction (log2)
HMQNNTIAFSKFLQEVDNGRVVQVEIQGNNINGILSDGSKFNTYSPNYPALVEKLSEKNVNIVASPV | 0.0149
HMQNPDHLLALAAAAQAAIELGRPDEAEAYYRHLVEVYGVEMASQKPEYLDHSGITNDLRNVAEGFLVG | -0.746
HMQNRIVNTTQGLAADKRGLLVADETGHTTRPGIFASGDVVNGARTVVEAVAHSKIVAESMHQYMQ | ≥ 0.62
HMQNSLKAFRVKRGLTTSALSRLTNGEFSTSRISNYETGVRALTIDAAKKLAPHLGASPAQLLNL | -0.357
HMQNSPVFAASDIEDIRVGMTVEHQRFGQGRVMSIEGNGPNKKTTVLFEGIGEKQLLLQYAKLKIV | 0.157
HMQNYLLFEEAKNIVNTLNLTNEKDWSEFIKKDFTYKNQIPIFPNQYYKHKGWVDWNDWLGINK | -1.56
HMQNYTTIIGVIELRLNDISYDNVRKRYHIGRSGITLIMDRYRDSGLSLEDLKQMTPEKVVDLFYPR | -2.3
HMQPAALEAQVIKLVRLHAPIKARQLATILANEFGQHVDRSTVNSLLYQLRAQGKVAQNAAYQWSLT | -0.65
HMQPEKELAPLIGQRVSVRLHDGDGGYRDLLGELESPDSIRKKNGEIAFFDPAKIAALRVVV | 0.0899
HMQPGDRVDALIVGVSGEHVFLDVGGKSEGVMAAAELRNEAGELSAAEGDRVQVYLLSNRNGELIFTA | 0.00616
HMQPHLSADEEHLLKILGSDTMHIDALVKRSTLETSNALAALAFLEMKGLVKNIGNMHYIRTYR | -0.139
HMQPIAVHIGTENPMKSLSDLSVVRAQFTSGGRVIGSVAVLGPTRMQYSRIVGMMRFMQQRLDLLLKG | 0.0586
HMQPKKLNMYYDYVRQLLESHPYLSAAQIEDRLKEEFTELPMVHSKTVFNFVENIRLQHGINKHA | -0.152
HMQPLRQGDFVTSEVVKVQDGTAVLRTAQGTLLSASLTGNLGLLPGDRVETVVVEASPGRFVLRVLDIIR | -0.15
HMQPPLTPRELGVLQWAAEGKTTRDTSAILQIHQRTVEMHLKSAREKLDALNTTHAVARALAHGFILPPS | -0.0855
HMQPPVDGNEIMEIFGIKGSPVIGVIKSTIKNAILDGIIAPNDREAALELMFRIADENGLKPVVTQTQ | 0.101
HMQPRYMLIKTAILDAIERGEMKPGSQVPSENQLAQQHNVSRMTARRALSEMVDDGILMRSQGIGTFVSD | -0.0879
HMQPSFFEMIRMVESYIKQHFENVGNEFPEIARAIYYGIEEERNIYGTASREDMEELLDEGIPILPVP | -0.926
HMQPVEHLPTTDPLTTSAASEHERYEKVRWWLEEMQRTYETGDEVRAERIRLSLIEQMYKWEGE | -0.185
HMQPYTYNPNFLSDYRAYSLGIPLEAYDKLVQFRASGSFVNSMSDFQKITGVSDSLLAVLHSKFRYPK | -0.884
HMQQELEEMESGNLVRTAIDSLPINQRTAFILSAYEELPIKEIASIMNRSEGAVEQLLQRAKMNLKKKIK | 0.347
HMQQLTDRELEVLRLLAAGLSNNKIGEKLYISATTAKFHVSNIMRKLEVSRRAEAVYAASKRGL | -2
HMQQLTQRELTLLRLLANGYNNRQIAEQLQLAESTVKNNLSALFQKIGVRDRTQAVLFAISQGLVP | -0.656
HMQQNDMTELRALAEKIISENDSVINDYKSGQGSALQFLIGQAMKETKGSANPQVISEIFTDLL | -0.225
HMQQPIPGEAYLTRRPGSDHFQIAFTIDGHRVRESSGTSDKVAAAALAQKRYEEVWREIKLGEK | 0.2

Sequence | soluble fraction (log2)
HMQQPVAYSEFVQSVNDRQIREAQIQGERIVATDNNGNRMTVIWPENDTKLLDELVQNGVLTSIQE | 0.12
HMQQVDWGSVFGDFGTMFKDQLQPTIDRLRRMAQSDTFRQSSLEEQQILYSLIEKLERSGTA | -1.03
HMQQVIEGLDSDRDFITVPEAIALFAVGRQTLYHYIRSGKIPSVNLGQRLTRLSKKQLGELFPLR | -1.63
HMQRGRTFSIVLNWKGRLLSTQMFFPQFTRPTKEQVTFEINKVYPGAMVYYYNPIEKDPSQPLV | -1.07
HMQRLSRREIEVLHWIAEGKSDWQIGQILSISAKTVNYHTENLKRKFGVATRMQAVVSAIKQGAFVPGE | -4.43
HMQRVSDKVAAQLRVLVQEQQLKPGDRLPAERALAVQLGVSRTALREAIAQLASQGLLTARVGGGTYVAEP | -0.307
HMQRYVVDENLKLDKKDINHIINVMRLNVNDQIKLINNGTIYDAIITKIEKNNVLYEIIKKEESK | 0.0274
HMQSANQLIKLSRKRKGLTQQELADQAGVSLRTVQRIEKGTEEISGFSLKQISQILEIPLEQLIM | -0.146
HMQSLDGPSRAAIVLMAIGPDVAGELIKSFSPAEAQKVSSLLATVRSLDREVMIEVLDSFKNITEH | -0.323
HMQSLPFSFAKRHGVLLKSINHLHGEAVYRIGANPLSLSEVQRYAGVPLKLSSITVEKFDRLLQETYEHD | -1.14
HMQSLSDQVFFYLKERIINNEMVPGSIISIEKLTSEFGISNTPVREAIVRLAGLDLVTIHRNKNITVS | -2.39
HMQSMSADDWSEKARVLMSAGIIVMGQEAKEKILNLKSLVPLIEAASASNVSMIDSRTFDELLMIIP | -1.26
HMQSREISYSEFVTAVEAGDVRNVTLDGEQVRFRRADGSDYVTIRPEDAEVTKLLMANDIPVRAEP | 0.169
HMQSRRTPASLVERVRQLNGQYQDKEIAELLNREGIKTAHGNEFNAKRIEMIRRHNGISKHSAQ | 0.174
HMQSSTAISFNQFQKSWLSNNIKSFQLGEDKMTVRGSLKNGTQYETIVPSERLFQFIGQHPKDGQVQEMY | 0.042
HMQSTEQVSVTVTIPPGGELRIDSDTFRVLLNGENVLDKQSGDWLMLSRDLLYLDIESAIGNGLSGNLIYT | 0.0974
HMQSVEELLDAIGDERLLHILLEADRKTLQIVVLKMMGYAPKEIGSHIGMPEQTVYTKLRRLREKIKKI | -1.49
HMQSYHVGDKVTIKNSASHWATGQSIYNGVKGHTYKIIQTNGHKLLLDQVISWINDGDVYKAGS | -0.492
HMQSYSTIIGVIELRLSGIGYRTTKARYGIGNSTVTLIMNRFKETGFTLDDLKTMEPTKVEALFYPP | -0.873
HMQSYSYYDFQKALQNKTVESVIIEPDKTVPTGTLQIQLKGDTKEELNVSDVTEVEELLQSYDVDYKLRSV | 0.131
HMQTASVRFADGQLEVKQKGLQRVSVYSLNGMTVANKAVQGQDYVTISLPRAAYIVKITTQNGSFTKVI | -0.207
HMQTGRREALEAQLRETGGEAMLARLREIDPEAAARLHPADEKRVIRALEVYEETGKTITQHNLETKAVPP | 0.239
HMQTKEVDYGTFMSMIDEKNIGTVEIGDSQIVFTDKDNKNLYETGVMNDPDLAQRLHDAGATFSS | 0.201
HMQTLQTTSLRVSENQLFILDQQALPQEKRWLAADNVALLVDHIHTLRVRGAPLIGLSASLLLALLAGRLT | -0.0766
HMQTMNKTNISNFEKYLNSGDVSEVIVVRNKSSVRVTLTPEALRSSEHQAVVGKNILGQENIKGPHYQFEV | -0.0672

Sequence | soluble fraction (log2)
HMQTPPGRYRHYKGGLYEVIATARHSETLEPMTVYRALYGEQGLWVRPAAMFAEDITLEGVRQPRFARI | -1.91
HMQTRIDISDAVLQWVVRKTQFAALPPKAAAHLTKWVRGEKKPTFNQLEEVSKATGIPLGYFFLQQPPHE | -0.776
HMQTTEDMEINAKVDEYLREMYLWNDEYKTLNLDHNKGYEDFFYDALGSMTTNTLDKKTYVGSDGKTYYNL | -0.248
HMQTYTYYIAKNDISIGQKITPDMLIEKQVNLGDSKDRYLSREQLETGKYIAVRQIPAGELISSASANE | 0.157
HMQVAPQVERLLRVMGNETLSLSDIMGRMGLSDKKNFRESYLVPALRSAVIEMTIPDKPNSSLQKYRRIHE | -0.176
HMQVEEKNKKIELYIEGKIKELESNLMYVPNENKKKLLMAFMNRNEDIEIIKTKIDTIFNKSVAAYKENM | 0.237
HMQVIDNHWRPSRDALDILLRDGISEHFIEDAIPEFILYWRERGTQDSNWNSRFLQHIRLQWARYTNAV | -0.433
HMQVPDLYRTLGVGRDATTEAIEAAYVGWQARLSAGEPISTQEWERLRYAHEVLSNPQRRSLYDSLVAET | 0.0709
HMQVPVNVSMEILDWVIAHIKIDALPNQIREYLNLWVNGEKEPTFNQVEKVSKATGIPLGYFFLQTPPIED | -1.66
HMQVQHVWNRLKRPNGDVLYEINRDHPLVSASLDAAADRGAIETLLRQIEQSLPVNQLYVDMNADEHFE | -0.301
HMQVSDAAQLAEVVKTVLAENPAAVGDYRKGKKAAIGFLLGQVMRHMRGTANPAVARQLLEQALEDE | 0.0337
HMQVSDLSAIDSLIDKVLSEQQAAVQDFRSGQGKAMGFLIGKVMQASDGKANPKVIRELMGKKLA | 0.159
HMQVSIGERVKLARMSAGLNQRQLGKEMGMSAMAISKYETGEVVPNSRVLIQLSQTLHVPLDFFFRS | -2.69
HMQVTDADFDQIRLAVLSQLKQNSLTVAELLKIIPFKEQKVMPVIRFLIDNRVLEHGTDMKLTVGNSVK | 0.0195
HMQVTIGADLAEHAARLDVQISDVVKLIKSGVSEGEIKVGLTKLETRLAHPELALVENKLAYLKALIAES | -0.243
HMQYALEDDLDSAIKLLTGKGLSGTVAWGWSDTYINVGKKSYSMEFIAKMLLRLGEGSRVTIQVDPA | -4.68
HMQYIINFEYSGMLLREYLRGVLGLSHGTLTALKKDPLGILLNGEHATVRAVLHAGDRLTLALE | -3.05
HMQYKVMDVTVDGNPVIEFQNLNSKIKWIENNPDAIIQNIKTSSFEADQKRIVGTSRGPFWIVIKPDF | -0.144
HMQYRQRRGLERMELILDAATRVVAEVGYERTTTNAIATRAGISPGSLYQYFSSKEDIASALWERYAE | -0.23
HMRAGEAVTGQVIGVKEDEIILSIAGSKSEGIITRSEFTNEPNVDLTTKVSVGDELEVKVLKVNDGEGMAS | -0.171
HMRAKPLILLDGREISAEELFSLDKNSIKSIEVLKDETALAQYGEKAKNGVVLVVTKSAAAS | 0.246
HMRALPAGQADLLKWIDGVTPRSVEELELLSGLEPGRLSELLMELELAGIVRAVAGDSYIKISKS | -0.462
HMRAPETEITYTEFKTALRAGQIETATVGIEQISGKLTDGDLYRTVRVDDPDLLKDLEANHVNAAGRV | 0.104
HMRASQGRNELILSLLRGHELSILELLEGLEKQGVRVARPTLTKDLNELVSRGSVEATAPPRSKNRTYRIP | -0.612
HMRDFLMDSTKNKLSKDQVQLSRIFLWFGNDFGSKAERLEFISRYSGMDFNQPKIDYLTYDWSLNQ | 0.278
